B1: Envelope small membrane protein (Human SARS coronavirus), P59637 (parent)
chain: MYSFVSEETGTLIVNSVLLFLAFVVFLLVTLAILTALRLCAYCCNIVNVSLVKPTVYVYSRVKNLNSSEGVPDLLV

Variants of: B1
Conditions: with SDCBP

Variant | effect of a mutation on the interaction
E69A;V71A;D73A;L75A | with no effect

Variants of: B1
Conditions: with SDCBP
Remark: another data set of the same source

Variant | effect of a mutation on the interaction
D73G;L74G;L75G;V76G | decreasing interaction strength

Source: IntAct's records for PubMed 25122212
